In assay [1] the target is T1, HLA-DR1 (DR1 alpha/beta; DRA and DRB1*0101) on the cell surface (human). Kind of assay: flow cytometry on HLA-DR-bearing cells, FITC rabbit anti-SpeA. On the technique in general: In flow cytometry, cells or beads pass a laser one at a time.
Assay [2] has as its target T1, HLA-DR1 (DR1 alpha/beta; DRA and …). In words: flow cytometry; toxin on cells bearing HLA-DR1.
Assay [3] shares this target. In words: flow cytometry on HLA-DR-bearing cells, FITC rabbit anti-TSST-1.
The target is the same in assay [4]. In words: flow cytometry on human MHC class II expressing cells.

B1: SpeA mutant L42A (ligand)
chain: QQDPDPSQLHRSSLVKNLQNIYFLYEGDPVTHENVKSVDQLASHDLIYNVSGPNYDKLKTELKNQEMATLFKDKNVDIYGVEYYHLCYLCENAERSACIYGGVTNHEGNHLEIPKKIVVKVSIDGIQSLSFDIETNKKMVTAQELDYKVRKYLTDNKQLYTNGPSKYETGYIKFIPKNKESFWFDFFPEPEFTQSKYLMIYKDNETLDSNTSQIEVYLTTK
As to B1, in assay [1], the binding result is on record as “binds”.

B2: staphylococcal enterotoxin D (SED) (ligand)
chain: NENIDSVKEKELHKKSELSSTALNNMKHSYADKNPIIGENKSTGDQFLENTLLYKKFFTDLINFEDLLINFNSKEMAQHFKSKNVDVYPIRYSINCYGGEIDRTACTYGGVTPHEGNKLKERKKIPINLWINGVQKEVSLDKVQTDKKNVTVQELDAQARRYLQKDLKLYNNDTLGGKIQRGKIEFDSSDGSKVSYDLFDVKGDFPEKQLRIYSDNKTLSTEHLHIDIYLYEK
As for B2, the binding result in assay [2] is listed as “binds”.

B3: toxic shock syndrome toxin-1 (TSST-1), wild type (ligand)
chain: STNDNIKDLLDWYSSGSDTFTNSEVLDNSLGSMRIKNTDGSISLIIFPSPYYSPAFTKGEKVDLNTKRTKKSQHTSEGTYIHFQISGVTNTEKLPTPIELPLKVKVHGKDSPLKYGPKFDKKQLAISTLDFEIRHQLTQIHGLYRSSDKTGGYWKITMNDGSTYQSDLSKKFEYNTEKPPINIDEIKTIEAEIN
With B3, the binding result in assay [3] was “binds”.

B4: staphylococcal enterotoxin A (SEA), wild type (ligand)
chain: SEKSEEINEKDLRKKSELQGTALGNLKQIYYYNEKAKTENKESHDQFLQHTILFKGFFTDHSWYNDLLVDFDSKDIVDKYKGKKVDLYGAYYGYQCAGGTPNKTACMYGGVTLHDNNRLTEEKKVPINLWLDGKQNTVPLETVKTNKKNVTVQELDLQARRYLQEKYNLYNSDVFDGKVQRGLIVFHTSTEPSVNYDLFGAQGQYSNTLLRIYRDNKTINSENMHIDIYLYTS
B4: the binding result in assay [4] was “binds”.

These data come from patent EP2083016A1 (U.S. Medical Research Institute of Infectious Diseases, dated 2009).
